The values that follow come from patent publication US20160326540A1, “Methods and Compositions Employing a Sulfonylurea-Dependent Stabilization Domain” (PIONEER HI-BRED INTERNATIONAL, INC., priority 2013, published 2016).

One data set concerns E. coli KM3. It counts as cell-based. Particulars: for Control 84 hr (colony color intensity): M9 assay plates, no inducer (background activity), 84 hr at 30° C., ImageJ colony color intensity. As for the experimental part: Library L6 was assembled, rescued, ligated into pVER7314, transformed into E. coli KM3 and plated out onto LB carbenicillin/kanamycin, and carbenicillin only control media as before. Library plates were then picked into 42 384-well microtiter plates (˜16,000 clones) containing 60 μl LB carbenicillin (Cb) broth per well. After overnight growth at 37° C. the cultures were stamped onto M9 assay plates containing no inducer, 0.2 ppm, and 2.0 ppm chlorsulfuron as test inducer. Following incubation at 30° C. for ˜48 hrs, putative hits responding to chlorsulfuron treatment as determined by increased blue colony color were re-arrayed into six 96-well microtiter plates and used to stamp a fresh set of M9 assay plates to confirm the above results. For a more detailed analysis of the relative induction by chlorsulfuron, digital photographs were taken of the plates after various time points of incubation at 30° C. and colony color intensity measured using the digital image analysis freeware program ImageJ (Rasband, US National Institutes of Health, Bethesda, Md., USA, rsb.info.nih.gov/ij/, 1997-2007). […] From this analysis sequence-activity relationships were derived. […] Briefly, C at position 100, and Q at positions 108 and 109 strongly correlated with activation, while R at position 138, L at position 170, and A or G at position 173 were highly preferred in clones with the lowest background activity. […] This information will aid in the design of further libraries to improve responsiveness to chlorsulfuron. […]
Library CsL3 construction and screening: Based on the IVM results the top performing residue substitutions were incorporated into library CsL3 (Table 14). The library was assembled with the oligonucleotides shown below in Table 19. The first and last primers in each set were used as rescue primers. To enable purification of hit proteins, a 6×His-tag between was added to the C-terminus of the ligand binding domain of each clone during the assembly and rescue process. The library was then inserted into pVER7334 SacI/AscI, transformed into E. coli assay strain Km3 and selected on LB+40 ug/ml Kanamycin and 50 ug/ml Carbenicillin. […] Colony color was then assessed at 24 and 96 hrs of incubation at 37° C. […] Also, while the C86M substitution was less frequent in the overall hit population it occurred in all top 26 clones.
Creating novel diversity through random mutagenesis.
Construction and screening of library CsL4.2.

Data set [1] concerns β-gal background activity. Description: First and second round library screening (L1, L2) for induction by sulfonylurea ligands. It counts as cell-based. The note with it: initial screen, library L1, data not shown. The source says:
The original library was designed to thifensulfuron, but once induction activity was established with other SU compounds having potentially better soil and in planta stability properties than the original ligand, the evolution process was re-directed towards these alternative ligands. Of particular interest were herbicides metsulfuron, sulfometuron, ethametsulfuron and chlorsulfuron. For this objective, parental clones L1-9, -22, -29 and -44 were chosen for further shuffling. Clone L1-9 has strong activity on both ethametsulfuron and chlorsulfuron; clone L1-22 has strong sulfometuron activity; clone L1-29 has moderate metsulfuron activity; and clone L1-44 has moderate activity on metsulfuron, ethametsulfuron and chlorsulfuron. (Data not shown.). No clones found in the initial screen were exceptionally reactive to metsulfuron. These four clones were also chosen due to their relatively strong repressor activity, showing low β-gal background activity without inducer. Strong repressor activity is important for establishing a system which is both highly sensitive to the presence of inducer, and tightly off in the absence of inducer.
Based on the sequence information from parental clones L1-9, -22, -29 and -44, two second round libraries were designed, constructed and screened. The first library, L2, consisted of a ‘family’ shuffle whereby the amino acid diversity between the selected parental clones was varied using synthetic assembly of oligonucleotides to find clones improved in responsiveness to any of the four new target ligands.
The L2 oligonucleotides were assembled, cloned and screened as per the protocol described for library L1 except that each ligand was tested at 2 ppm to increase the stringency of the assay, which is a 10-fold reduction from 1st round library screening concentration.

B1: L8-3F01: library L8 chlorsulfuron repressor hit, parent for saturation mutagenesis and CsL3 (protein)
chain: MARLDKSKVINSALELLNEVGIEGLTTRKLAQKLGVEQPTLYWHVKNKRALLDALAIEMMDRHQTHYLPLEGESWQDFLRNNAKSCRRALLSHRDGAKVCLGTRWTEQQYETAENMLAFLTQQGFSLENALYAVSAVRVFTLGAVLFDQESQVAKEERETPTTDSMPPLLRQAWELKDHQGAEPAFLFGLELIIAGLEKQLKRESGS
modifications: Sulfonylurea responsive repressor
notes: library L8 chlorsulfuron repressor hit, parent for saturation mutagenesis and CsL3
With B1, the “F.IND = fold induction (IND/REP) (Colony Assay Results)” value with E. coli KM3 (CsL3 hits, 20 ppb Cs vs no inducer) is on record as 2.5.

B2: L1-22: first round library L1 sulfonylurea repressor parental clone (protein)
chain: MGSRLDKSKVINSALELLNEVGIEGLTTRKLAQKLGVEQPTLYWHVKNKRALLDALAIEMMDRHHTHFCPLEGESWQDFLRNTAKSYRCALLSHRDGAKVCLGTAITEKQYETKENNLAFLCQQGFSLENALYARQAVRVFTLGCVLFDQEMQVAKEERETPTTDSMPPLLRQASELLDHQGAEPAFLFGLELIICGLEKQLKSESGS
modifications: Sulfonylurea responsive repressor
notes: first round library L1 sulfonylurea repressor parental clone
With B2, the sulfometuron activity entry in data set [1] was “strong”.

B3: L6-1B03 (protein)
chain: MGSRLDKSKVINSALELLNEVGIEGLTTRKLAQKLGVEQPTLYWHVKNKRALLDALAIEMMDRHATHICPLEGESWQDFLRNNAKSMRCALLSHRDGAKVCLGTRWTEQQYEAAENMLAFLCQQGFSLENALYAVSAVRVFTLGCVLFDQESQVAKEERETPTTASMPPLLRQAWELKDHQGAEPAFLFGLELIICGLEKQLKCESGS
modifications: Sulfonylurea responsive repressor
As for B3, the “Control 84 hr (colony color intensity)” value in the data set with E. coli KM3 came out at 6.6.

B4: L6-5G06 (protein)
chain: MGSRLDKSKVINSALELLNEVGIEGLTTRKLAQKLGVEQPTLYWHVKNKRALLDALAIEMMDRHQTHYCPLEGESWQDFLRNNAKSMRCALLSHRDGAKVCLGTRWTEQQYETAENQLAFLCQQGFSLENALYAVSAVRVFTLGCVLFDQELQVAKEERETPTTASMPPLLRQGWELKDHQGAEPAFLFGLELIICGLEKQLKCESGS
modifications: Sulfonylurea responsive repressor
Turning to B4, the “Control 84 hr (colony color intensity)” value with E. coli KM3 is on record as 7.0.

B5: L6-2C09 (protein)
chain: MGSRLDKSKVINSALELLNEVGIEGLTTRKLAQKLGVEQPTLYWHVKNKRALLDALAIEMMDRHQTHYCPLEGESWQDFLRNTAKSMRCALLSHRDGAKVCLGTRWTEQLYETAENQLAFLCQQGFSLENALYAMSAVRVFTLGCVLFDQELQVAKEERETPTTASMPPLLRQAWELKDHQGAEPAFLFGLELIICGLEKQLKCESGS
modifications: Sulfonylurea responsive repressor
As for B5, the “Control 84 hr (colony color intensity)” value with E. coli KM3 is 5.2.

B6: L6-2D07 (protein)
chain: MGSRLDKSKVINSALELLNEVGIEGLTTRKLAQKLGVEQPTLYWHVKNKRALLDALAIEMMDRHQTHFCPLEGESWQDFLRNTAKSMRCALLSHRDGAKVCLGTRWTEQQYETAENMLAFLCQQGFSLENALYAMSAVRVFTLGCVLFDQESQVAKEERETPTTASMPPLVRQAWELKDHQGAEPAFLFGLELIICGLEKQLKCESGS
modifications: Sulfonylurea responsive repressor
For the molecule B6, in the data set with E. coli KM3, the “Control 84 hr (colony color intensity)” value came to 5.8.

B7: L6-6F07 (protein)
chain: MGSRLDKSKVINSALELLNEVGIEGLTTRKLAQKLGVEQPTLYWHVKNKRALLDALAIEMMDRHATHLCPLEGESWQDFLRNTAKSMRCALLSHRDGAKVCLGTRWTEQQYESAENMLAFLCQQGFSLENALYAMSAVRVFTLGCVLFDQESQVAKEERETPTTASMPPLLRQAWELKDHQGAEPAFLFGLELIICGLEKQLKCESGS
modifications: Sulfonylurea responsive repressor
B7: in the data set on E. coli KM3, the “Control 84 hr (colony color intensity)” value stood at 5.1.

B8: L6-5H12 (protein)
chain: MGSRLDKSKVINSALELLNEVGIEGLTTRKLAQKLGVEQPTLYWHVKNKRALLDALAIEMMDRHATHYCPLEGESWQDFLRNNAKSMRCALLSHRDGAKVCLGTRWTEKQYETAENQLAFLCQQGFSLENALYAMSAVRVFTLGCVLFDQELQVAKEERETPTTASMPPLVRQAWELKDHQGAEPAFLFGLELIICGLEKQLKCESGS
modifications: Sulfonylurea responsive repressor
Consider B8, for which the “Control 84 hr (colony color intensity)” value in the data set on E. coli KM3 is 5.7.

B9: L6-5F05 (protein)
chain: MGSRLDKSKVINSALELLNEVGIEGLTTRKLAQKLGVEQPTLYWHVKNKRALLDALAIEMMDRHATHICPLEGESWQDFLRNNAKSMRCALLSHRDGAKVCLGTRWTEQQYEAAENQLAFLCQQGFSLENALYAVSAVRVFTLGCVLFDQELQVAKEERETPTTASMPPLLRQAWELKDHQGAEPAFLFGLELIICGLEKQLKCESGS
modifications: Sulfonylurea responsive repressor
Turning to B9, the “Control 84 hr (colony color intensity)” value in the data set on E. coli KM3 is given as 5.4.

B10: L6-5H06 (protein)
chain: MGSRLDKSKVINSALELLNEVGIEGLTTRKLAQKLGVEQPTLYWHVKNKRALLDALAIEMMDRHQTHICPLEGESWQDFLRNNAKSMRCALLSHRDGAKVCLGTRWTEKQYETAENMLAFLCQQGFSLENALYAVSAVRVFTLGCVLFDQELQVAKEERETPTTASMPPLVRQAWELKDHQGAEPAFLFGLELIICGLEKQLKCESGS
modifications: Sulfonylurea responsive repressor
On to B10, for which, in the data set on E. coli KM3, the “Control 84 hr (colony color intensity)” value was 5.1.

B11: L6-3H02 (protein)
chain: MGSRLDKSKVINSALELLNEVGIEGLTTRKLAQKLGVEQPTLYWHVKNKRALLDALAIEMMDRHATHYCPLEGESWQDFLRNTAKSMRCALLSHRDGAKVCLGTRWTEQHYESAENMLAFLCQQGFSLENALYAVSAVRVFTLGCVLFDQESQVAKEERETPTTASMPPLVRQAWELKVHQGAEPAFLFGLELIICGLEKQLKCESGS
modifications: Sulfonylurea responsive repressor
For the molecule B11, the “Control 84 hr (colony color intensity)” value in the data set with E. coli KM3 is on record as 5.6.

B12: L6-4D10: library L6 clone, parent of the L8 hits (protein)
chain: MGSRLDKSKVINSALELLNEVGIEGLTTRKLAQKLGVEQPTLYWHVKNKRALLDALAIEMMDRHQTHYCPLEGESWQDFLRNNAKSMRCALLSHRDGAKVCLGTRWTEKQYESAENMLAFLCQQGFSLENALYAVSAVRVFTLGCVLFDQESQVAKEERETPTTASMPPLLRQAWELKDHQGAEPAFLFGLELIICGLEKQLKCESGS
modifications: Sulfonylurea responsive repressor
notes: library L6 clone, parent of the L8 hits
Take B12: the “Control 84 hr (colony color intensity)” value with E. coli KM3 was 5.0.

B13: L1-29: first round library L1 sulfonylurea repressor parental clone (protein)
chain: MGSRLDKSKVINSALELLNEVGIEGLTTRKLAQKLGVEQPTLYWHVKNKRALLDALAIEMMDRHQTHFCPLEGESWQDFLRNTAKSMRCALLSHRDGAKVWLGTRWTEKQYETPENMLAFLCQQGFSLENALYAWSAVCNFTLGCVLSDQERQVAKEERETPTTDSMPPLLRQAWELSDHQGAEPAFLFGLELIICGLEKQLKCESGS
modifications: Sulfonylurea responsive repressor
notes: as for B2
As for B13, in data set [1], the metsulfuron activity result is listed as “moderate”.
